Molecular target: human CD38 on cells (human) (UniProt P28907)
Test: FACS Scatchard, IgG1 on Raji cells

Kd: 8.28 nM
Substance: Chimeric OKT10 (antibody)

Source: US20240309109A1
